Test results from patent US20150274826A1 (ARCH ONCOLOGY, published 2015).
Where a chain is given by its changes, count along the chain named.

B1: Clone 24 (pVxK7b-037-hum24-LC / pVxK7b-037-hum24-HC) (antibody, human IgG1, kappa, V domains shown)
VH: QVQLQESGPGLVKPGATVKISCKVSGYTFTNYYVFWVRQARGQRLEWIGDINPVNGDTNFNEKFKNRVTITADKSTSTAYMELSSLRSEDTAVYYCARGGYTMDYWGQGTLVTVSS
VL: AIQLTQSPSSLSASVGDRVTITCRSSQSLVHSNGNTYLHWYQQKPGQAPRLLIYKVSYRFSGVPSRFSGSGSGTEFTLTISSLQPDDFATYYCSQNTHVPRTFGQGTKVEIKR
notes: also called Cl 24
B2: Clone 4 (pVxK7b-037-hum04-LC / pVxK7b-037-hum04-HC) (antibody, human IgG1, kappa, V domains shown)
VH: QVQLQESGPGLVKPSQTLSLTCTVSGYTFTNYYVFWVRQAPGKGLEWVSDINPVNGDTNFNEKFKNRVTISVDTSKNQFSLKLSSVTAADTAVYYCARGGYTMDYWGQGTLVTVSS
VL: B1 VL with A1D, L4M, Q42L, A48S, R50Q, V63I, S65A, P85S, D86E, T90V
B3: Clone 11 (pVxK7b-037-hum11-LC / pVxK7b-037-hum11-HC) (antibody, human IgG1, kappa, V domains shown)
VH: B1 VH
VL: EIVLTQSPATLSVSPGERATLSCRSSQSLVHSNGNTYLHWYQQKPGQAPRLLIYKVSYRFSGVPSRFSGSGSGTDFTFTISSLEAEDAATYYCSQNTHVPRTFGQGTKVEIKR
notes: also called Cl 11
B4: Clone 7 (pVxK7b-037-hum07-LC / pVxK7b-037-hum07-HC) (antibody, human IgG1, kappa, V domains shown)
VH: B1 VH
VL: DIVMTQTPLSLPVTPGEPASISCRSSQSLVHSNGNTYLHWYLQKPGQSPQLLIYKVSYRFSGVPDRFSGSGSGTDFTLKISRVEAEDVGVYYCSQNTHVPRTFGQGTKVEIKR
B5: Clone 12 (pVxK7b-037-hum12-LC / pVxK7b-037-hum12-HC) (antibody, human IgG1, kappa, V domains shown)
VH: B1 VH
VL: B4 VL with L42Q, Q47K, S48A, Q50K
B6: Clone 17 (pVxK7b-037-hum17-LC / pVxK7b-037-hum17-HC) (antibody, human IgG1, kappa)
heavy: not shown
light: AIQLTQSPSSLSASVGDRVTITCRSSQSLVHSNGNTYLHWYQQKPGQAPRLLIYKVSYRFSGVPDRFSGSGSGTDFTLKISRVEAEDVGVYYCSQNTHVPRTFGQGTKVEIKRTVAAPSVFIFPPSDEQLKSGTASVVCLLNNFYPREAKVQWKVDNALQSGNSQESVTEQDSKDSTYSLSSTLTLSKADYEKHKVYACEVTHQGLSSPVTKSFNRGEC
B7: Clone 9 (pVxK7b-037-hum09-LC / pVxK7b-037-hum09-HC) (antibody, human IgG1, kappa)
heavy: not shown
light: DVVMTQSPLSLPVTLGQPASISCRSSQSLVHSNGNTYLHWYQQKPGKAPKLLIYKVSYRFSGVPDRFSGSGSGTDFTLKISRVEAEDVGVYYCSQNTHVPRTFGQGTKVEIKRTVAAPSVFIFPPSDEQLKSGTASVVCLLNNFYPREAKVQWKVDNALQSGNSQESVTEQDSKDSTYSLSSTLTLSKADYEKHKVYACEVTHQGLSSPVTKSFNRGEC
notes: also called Cl 9
B8: Clone 5 (pVxK7b-037-hum05-LC / pVxK7b-037-hum05-HC) (antibody, human IgG1, kappa)
heavy: not shown
light: B7 light with V2I, S7T, L15P, Q17E, Q42L, K47Q, A48S, K50Q
B9: Clone 8 (pVxK7b-037-hum08-LC / pVxK7b-037-hum08-HC) (antibody, human IgG1, kappa)
heavy: not shown
light: B7 light with V2I, S7T, L15P, Q17E
B10: Clone 10 (pVxK7b-037-hum10-LC / pVxK7b-037-hum10-HC) (antibody, human IgG1, kappa, V domains shown)
VH: QVQLQESGPGLVKPSQTLSLTCTVSGYTFTNYYVFWVRQARGQRLEWIGDINPVNGDTNFNEKFKNRLTISKDTSKNQVVLTMTNMDPVDTATYYCARGGYTMDYWGQGTLVTVSS
VL: B4 VL
B11: Clone 16 (pVxK7b-037-hum16-LC / pVxK7b-037-hum16-HC) (antibody, human IgG1, kappa, V domains shown)
VH: QVQLQESGPGLVKPSQTLSLTCTVSGYTFTNYYVFWVRQARGQRLEWIGDINPVNGDTNFNEKFKNRVTISADKSISTAYLQWSSLKASDTAMYYCARGGYTMDYWGQGTLVTVSS
VL: AIQLTQSPSSLSASVGDRVTITCRSSQSLVHSNGNTYLHWYQQKPGQAPRLLIYKVSYRFSGVPDRFSGSGSGTDFTLKISRVEAEDVGVYYCSQNTHVPRTFGQGTKVEIKR

Key:
Assay in all cases: flow cytometry on RBCs, CHO supernatant 10 ng/ml
human CD47 = target: T1, human CD47 (human, UniProt Q08722 19-323)
T1 construct: whole, on cells; also called CD47 on human RBCs; CD47 on OV10 cells
Description: (§1) RBCs are incubated for 60 minutes on ice with tissue culture supernatants containing the secreted humanized antibodies at a concentration of 10 ng/ml in a solution of phosphate buffered saline, pH 7.2, 2.5 mM EDTA (PBS+E), or with various concentrations of purified antibodies. Cells are then washed with cold PBS+E, and incubated for an additional hour on ice with FITC labeled donkey anti-human antibody (Jackson Immuno Research Labs, West Grove, Pa.; Catalogue #709-096-149) in PBS+E. Cells are then washed with PBS+E, and antibody binding is analyzed using a BD FACSAria Cell Sorter (Becton Dickinson) or a C6 Accuri Flow Cytometer (Becton Dickinson). Antibody binding is quantitated by comparison of mean fluorescence values relative to that of chimeric antibody >VxP037-01LC (SEQ ID NO:7))/>VxPO37-01HC (SEQ ID NO:57). The mean fluorescence value for each antibody is divided by the mean fluorescence value for the chimeric antibody.

mouse CD47 = target: T2, mouse CD47 (mouse, UniProt Q61735 19-303)
T2 construct: whole, on cells; also called CD47 on mouse RBCs; CD47 on 4T1 cells
T2 sequence (looked up): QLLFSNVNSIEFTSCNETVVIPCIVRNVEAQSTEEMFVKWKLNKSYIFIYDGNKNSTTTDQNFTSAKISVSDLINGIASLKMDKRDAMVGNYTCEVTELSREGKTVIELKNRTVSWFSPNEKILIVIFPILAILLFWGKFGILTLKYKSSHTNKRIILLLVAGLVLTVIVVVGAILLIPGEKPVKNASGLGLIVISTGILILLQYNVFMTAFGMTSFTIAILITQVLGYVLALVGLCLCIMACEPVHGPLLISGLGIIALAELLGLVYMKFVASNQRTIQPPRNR
Description: as §1

rat CD47 = target: T3, rat CD47 (rat, UniProt P97829 19-303)
T3 construct: whole, on cells; also called CD47 on rat RBCs
T3 sequence (looked up): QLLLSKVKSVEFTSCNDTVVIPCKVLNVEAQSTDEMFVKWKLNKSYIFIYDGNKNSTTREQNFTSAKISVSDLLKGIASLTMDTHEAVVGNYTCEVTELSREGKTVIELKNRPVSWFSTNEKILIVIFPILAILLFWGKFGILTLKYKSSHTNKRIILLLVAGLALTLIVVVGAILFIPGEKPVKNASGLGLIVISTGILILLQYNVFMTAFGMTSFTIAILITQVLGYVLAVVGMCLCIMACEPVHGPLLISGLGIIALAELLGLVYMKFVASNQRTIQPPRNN
Description: as §1

pig CD47 = target: T4, pig CD47 (pig, UniProt Q9GKE8 19-303)
T4 construct: whole, on cells; also called CD47 on porcine RBCs
T4 sequence (looked up): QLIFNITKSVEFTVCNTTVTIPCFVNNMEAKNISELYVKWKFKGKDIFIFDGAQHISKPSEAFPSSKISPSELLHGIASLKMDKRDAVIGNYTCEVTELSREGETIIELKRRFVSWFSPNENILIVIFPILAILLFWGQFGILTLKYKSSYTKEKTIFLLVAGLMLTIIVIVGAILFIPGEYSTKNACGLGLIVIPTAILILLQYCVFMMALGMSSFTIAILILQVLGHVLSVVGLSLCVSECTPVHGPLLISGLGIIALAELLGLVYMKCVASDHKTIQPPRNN
Description: as §1

dog CD47 = target: T5, dog CD47 (dog, UniProt A0A8I3PM61 19-310)
T5 construct: also called CD47 on dog RBCs
T5 sequence: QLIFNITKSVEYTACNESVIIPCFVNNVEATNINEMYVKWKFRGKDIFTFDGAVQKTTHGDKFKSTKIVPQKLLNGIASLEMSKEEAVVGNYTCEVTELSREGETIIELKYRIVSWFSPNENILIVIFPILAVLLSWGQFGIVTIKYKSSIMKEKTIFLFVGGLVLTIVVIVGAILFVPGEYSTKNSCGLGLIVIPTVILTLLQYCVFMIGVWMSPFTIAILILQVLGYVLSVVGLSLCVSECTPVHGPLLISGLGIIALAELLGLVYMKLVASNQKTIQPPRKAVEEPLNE
Description: as §1

T1 sequence (Q08722 19-323): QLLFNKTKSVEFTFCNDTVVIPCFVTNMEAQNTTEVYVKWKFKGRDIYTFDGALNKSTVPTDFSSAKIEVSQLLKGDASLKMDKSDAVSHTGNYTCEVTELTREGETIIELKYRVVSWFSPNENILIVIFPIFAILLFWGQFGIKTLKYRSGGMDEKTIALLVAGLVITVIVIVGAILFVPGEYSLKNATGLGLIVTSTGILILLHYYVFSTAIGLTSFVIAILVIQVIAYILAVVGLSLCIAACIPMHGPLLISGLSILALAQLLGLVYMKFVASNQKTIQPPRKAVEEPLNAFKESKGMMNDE

| Binder | mean fluorescence relative to chimeric antibody (human CD47) | mean fluorescence relative to chimeric antibody (mouse CD47) | mean fluorescence relative to chimeric antibody (rat CD47) | mean fluorescence relative to chimeric antibody (pig CD47) | mean fluorescence relative to chimeric antibody (dog CD47) |
| --- | --- | --- | --- | --- | --- |
| B1 | 0.8 ratio | 0.7 ratio | 1.2 ratio | 1.1 ratio | 1 ratio |
| B2 | 0.6 ratio | 0.6 ratio | 1 ratio | 0.6 ratio | 0.6 ratio |
| B3 | 0.8 ratio | 0.7 ratio | 1.2 ratio | 1.2 ratio | 0.8 ratio |
| B4 | 0.5 ratio | 0.4 ratio | 0.8 ratio | 0.9 ratio | 0.8 ratio |
| B5 | 0.8 ratio | 0.6 ratio | 1.3 ratio | 1.4 ratio | 0.9 ratio |
| B6 | 0.8 ratio | 0.9 ratio | 2.1 ratio | 1.3 ratio | 1.3 ratio |
| B7 | 1.2 ratio | 1.4 ratio | 3.7 ratio | 1.6 ratio | 1 ratio |
| B8 | 1 ratio | 1 ratio | 2.2 ratio | 1.2 ratio | 1.1 ratio |
| B9 | 0.7 ratio | 0.7 ratio | 1.2 ratio | 0.8 ratio | 0.8 ratio |
| B10 | 1.1 ratio | 1.2 ratio | 2.9 ratio | 1.5 ratio | 1.1 ratio |
| B11 | 0.9 ratio | 1 ratio | 2.1 ratio | 1.1 ratio | 1.1 ratio |
